These results are taken from patent US20250296995A1 (GlaxoSmithKline, published 2025).

Where “and” joins values, the source holds several entries; their conditions need not be identical. Equal values may be shown once.

Test [1] addresses T1, recombinant Plasmodium falciparum circumsporozoite protein (CSP) (Plasmodium falciparum, UniProt P19597 21-375). In words: cell-based or functional assay.
Test [2] addresses T2, human FcγRIIIa (V158) (human, UniProt P08637 17-208).
T2 construct: also called hFcγRIIIaV
In words: SPR, human FcγR. (In general: Surface plasmon resonance follows binding to a sensor surface in real time, without labels.)
From the text: (§1) A human IgG1 antibody in both WT and Fc silenced (LAGA) formats were included as negative control.

Test [3] has as its target T3, human FcγRIIIa (F158) (human, UniProt P08637 17-208).
T3 construct: also called hFcγRIIIaF
Nature of the test: SPR, human FcγR.
From the text: as §1

The target in test [4] is T4, human FcγRIIa (R131) (human, UniProt P12318 36-218).
T4 construct: also called hFcγRIIaR
T4 sequence (looked up): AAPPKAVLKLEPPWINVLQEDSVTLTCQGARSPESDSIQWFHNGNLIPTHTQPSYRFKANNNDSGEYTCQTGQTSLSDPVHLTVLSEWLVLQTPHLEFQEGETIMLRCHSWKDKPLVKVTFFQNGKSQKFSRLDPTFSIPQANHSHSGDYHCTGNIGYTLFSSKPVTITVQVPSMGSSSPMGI
In words: SPR, human FcγR.
From the text: as §1

Test [5] addresses T5, human FcγRI (human, UniProt P12314 16-288).
T5 construct: also called hFcγRI; CD64
Nature of the test: SPR, human FcγR.
From the text: as §1

Test [6] addresses T6, human FcγRIIb (human, UniProt P31994 43-217).
T6 construct: also called hFcγRIIb
T6 sequence (looked up): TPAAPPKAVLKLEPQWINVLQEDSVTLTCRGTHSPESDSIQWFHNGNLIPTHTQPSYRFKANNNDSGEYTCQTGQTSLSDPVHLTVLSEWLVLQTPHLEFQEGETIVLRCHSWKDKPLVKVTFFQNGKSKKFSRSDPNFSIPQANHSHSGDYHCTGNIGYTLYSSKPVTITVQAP
In words: SPR, human FcγR.
From the text: as §1

In test [7] the target is T7, human FcγRIIa (H131) (human, UniProt P12318 36-218).
T7 construct: also called hFcγRIIaH
T7 sequence (looked up): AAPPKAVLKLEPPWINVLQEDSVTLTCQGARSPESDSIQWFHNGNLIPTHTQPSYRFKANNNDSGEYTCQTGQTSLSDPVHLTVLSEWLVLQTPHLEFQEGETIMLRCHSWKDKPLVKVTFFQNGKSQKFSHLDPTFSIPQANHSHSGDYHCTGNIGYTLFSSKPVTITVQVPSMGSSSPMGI
Nature of the test: SPR, human FcγR.
From the text: as §1

The target of test [8] is T1, recombinant Plasmodium falciparum …. Nature of the test: SPR, recombinant CSP; n=1.
Test [9] addresses T8, human FcRn (human, UniProt P55899 24-297; P61769 21-119).
T8 construct: also called neonatal Fc receptor
Nature of the test: SPR, human FcRn, pH 6.0.

Test [10] has as its target T1, recombinant Plasmodium falciparum …. In words: SPR, recombinant CSP; geometric mean, n=3.
The target is the same in test [11]. Nature of the test: cell-based or functional assay. The source holds these as a separate data set.
For test [12] the target is unchanged. In words: cell-based or functional assay. The source holds these as a separate data set.

T1 sequence (P19597 21-375 limits assumed): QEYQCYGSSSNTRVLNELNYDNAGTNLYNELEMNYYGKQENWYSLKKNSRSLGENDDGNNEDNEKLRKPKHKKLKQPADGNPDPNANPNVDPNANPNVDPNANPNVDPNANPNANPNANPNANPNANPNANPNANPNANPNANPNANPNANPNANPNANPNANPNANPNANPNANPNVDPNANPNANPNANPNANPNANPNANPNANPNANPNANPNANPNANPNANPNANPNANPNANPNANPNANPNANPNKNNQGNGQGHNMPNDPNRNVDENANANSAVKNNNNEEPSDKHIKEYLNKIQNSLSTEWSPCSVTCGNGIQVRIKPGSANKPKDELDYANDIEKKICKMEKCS
T3 sequence (P08637 17-208 limits assumed): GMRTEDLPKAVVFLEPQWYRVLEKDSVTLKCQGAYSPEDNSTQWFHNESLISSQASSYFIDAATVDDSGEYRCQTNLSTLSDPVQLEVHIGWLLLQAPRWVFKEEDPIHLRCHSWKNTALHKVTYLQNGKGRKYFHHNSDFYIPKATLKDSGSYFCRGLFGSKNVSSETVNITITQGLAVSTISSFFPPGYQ
T5 sequence (P12314 16-288 limits assumed): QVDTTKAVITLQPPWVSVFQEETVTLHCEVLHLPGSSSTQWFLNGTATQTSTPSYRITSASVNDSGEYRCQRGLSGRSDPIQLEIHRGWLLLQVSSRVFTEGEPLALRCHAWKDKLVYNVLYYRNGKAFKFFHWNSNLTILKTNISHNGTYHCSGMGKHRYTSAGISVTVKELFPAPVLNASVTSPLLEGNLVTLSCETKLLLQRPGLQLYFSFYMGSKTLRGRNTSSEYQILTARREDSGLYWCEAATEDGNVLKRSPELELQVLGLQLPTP
T2 sequence (P08637 17-208 F176V limits assumed): as the sequence (P08637 17-208 limits assumed) above, with F160V counted along it
T8 sequence (P55899 24-297 limits assumed, form in doubt, chain 1 of 2): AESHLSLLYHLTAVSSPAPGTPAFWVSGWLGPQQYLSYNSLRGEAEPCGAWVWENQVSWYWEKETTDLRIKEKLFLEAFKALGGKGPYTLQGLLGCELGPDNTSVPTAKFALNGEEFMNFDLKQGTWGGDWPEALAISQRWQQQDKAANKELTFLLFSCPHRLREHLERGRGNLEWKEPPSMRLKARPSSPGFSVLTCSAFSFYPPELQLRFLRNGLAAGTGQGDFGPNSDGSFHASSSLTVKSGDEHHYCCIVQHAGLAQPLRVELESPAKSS
T8 sequence (P61769 21-119 limits assumed, form in doubt, chain 2 of 2): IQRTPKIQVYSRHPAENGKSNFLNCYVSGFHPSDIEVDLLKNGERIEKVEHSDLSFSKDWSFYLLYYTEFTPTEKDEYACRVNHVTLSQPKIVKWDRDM

B1: AB-000356 ALE LS (antibody, human IgG1, kappa)
heavy: QVQLVESGGGVVQPGRSLRLSCAASGFTFRNFGMHWVRQTPGKGLEWVAVIWHDGSNKFYADSVEGRFTISRDNSKNMIYLQMNSLRVEDTAIYYCARDSLFYDHDNSGYYGYWGQGTLVTVSSASTKGPSVFPLAPSSKSTSGGTAALGCLVKDYFPEPVTVSWNSGALTSGVHTFPAVLQSSGLYSLSSVVTVPSSSLGTQTYICNVNHKPSNTKVDKKVEPKSCDKTHTCPPCPAPELLAGPSVFLFPPKPKDTLMISRTPEVTCVVVDVSHEDPEVKFNWYVDGVEVHNAKTKPREEQYNSTYRVVSVLTVLHQDWLNGKEYKCKVSNKALPLPEEKTISKAKGQPREPQVYTLPPSRDELTKNQVSLTCLVKGFYPSDIAVEWESNGQPENNYKTTPPVLDSDGSFFLYSKLTVDKSRWQQGNVFSCSVLHEALHSHYTQKSLSLSPGK
light: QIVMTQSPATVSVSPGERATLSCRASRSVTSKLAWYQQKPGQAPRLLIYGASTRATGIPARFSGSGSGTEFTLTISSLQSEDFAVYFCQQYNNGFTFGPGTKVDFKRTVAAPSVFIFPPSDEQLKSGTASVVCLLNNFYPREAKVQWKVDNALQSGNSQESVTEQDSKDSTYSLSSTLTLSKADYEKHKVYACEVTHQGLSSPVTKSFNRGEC
One may read the Kd as the equilibrium constant for the complex coming apart. As to B1, the “GeoMean EC50 (M), ADCP repeat, n=4” value in [1] was determined as 6.45e-13 M. In addition, the “Mean EC50 (pM), ADCP repeat, n=4” value in [1] is 0.6 pM. The “Mean pEC50, ADCP repeat, n=4” value in test [1] is 12.2. The Kd in test [2] is 73 nM and 144 nM; in [3] it was 89 nM and 246 nM; in test [4] it was 675 nM and 766 nM; in test [5], 56 nM and 157 nM; in test [6], 3890 nM; in test [7], 218 nM and 268 nM. For the same molecule, the values for the Kd in [8], in [9] and in [10] were 1.58 nM, 52 nM and 1.1 nM, respectively. Further, the “Geo Mean EC50 (ug/ml), ADNKA, Donor 1” value in [11] was found to be 0.0052 µg/mL. Further, the “Geo Mean EC50 (ug/ml), ADNKA, Donor 2” value in test [11] worked out at 0.0035 µg/mL. The “Geo Mean EC50 (ug/ml), ADNKA, Donor 3” value in [11] worked out at 0.189 µg/mL. In test [11], the “Geo Mean EC50 (ug/ml), ADNKA, Donor 4” value was 0.0104 µg/mL. Moreover, in test [12], the “GeoMean EC50 (M), ADCP” value worked out at 5.03e-13 M. Further, in test [12], the “Mean EC50 (pM), ADCP” value was 0.5 pM. Besides, the “Mean pEC50, ADCP” value in test [12] was 12.3.
